Measurements reported in US20230192860A1 (Bristol-Myers Squibb, published 2023).
Changes are numbered by the printed parent chain. Blank lines part the entries; values can stand above or below the binder they belong to.

What was measured:
[1] = target: T1, monovalent hVISTA-ECD (amino acids 32-193 of SEQ ID NO: 1 with a 7xHis tail) (human, UniProt Q9H7M9 33-193); assay: SPR 37C, Ab on Protein A, hVISTA-ECD 100-0.78 nM, pH 6.0
T1 construct: analyte of the SPR assays; also called huVISTA-His; human VISTA-ECD
T1 sequence (Q9H7M9 other isoform, or with tags, fused parts or gaps limits assumed): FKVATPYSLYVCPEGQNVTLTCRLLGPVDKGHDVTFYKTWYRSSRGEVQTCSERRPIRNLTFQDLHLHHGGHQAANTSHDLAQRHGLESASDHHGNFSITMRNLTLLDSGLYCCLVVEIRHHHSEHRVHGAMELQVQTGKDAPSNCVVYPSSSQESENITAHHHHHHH
Procedure: For this assay, ‘029, ‘761 and ‘767were reformatted as hIgG1f isotype and were expressed as both standard hIgG1f and in hIgG1f afucosylated formats to compare against the hIgG1.3f Fc. An SPR kinetics assay was conducted to measure koff and KD binding affinity measurements for VISTA Abs at acidic and physiological pH using a Biacore® T100 instrument (GE Healthcare). […] Antibodies were diluted to 25 nM in PBST pH 7.4, and were captured across active biosensor flow cells at 5 ul/min for 45 seconds. A concentration series of 1600 - 0.78 nM (pH 7.4) and 100 - 0.78 nM (pH 6.0) monovalent hVISTA-ECD (SEQ ID NO: 325) was prepared running buffer, and was injected over the captured antibodies at 40 ul/min to measure association and dissociation. Two 15 second injections of 10 mM glycine pH 1.5 were used to regenerate the Protein A capture surface between assay cycles. Rate constants ka (kₒₙ) and kd (koff) were derived from reference flow cell and 0 nM blank-subtracted sensorgrams, and were fit to a 1:1 binding model in Biacore® T200 Evaluation Software v.2.0. The affinity constant, KD was calculated as the ratio of rate constants koff/kₒₙ for each VISTA antibody. Ratios of koff and KD at pH 7.4 / pH 6.0 were calculated to compare off-rate and affinity improvement at acidic pH relative to physiological pH.

[2] = target: T1, monovalent hVISTA-ECD (amino acids …); assay: as above; remark: listed apart in the source
Procedure: (§1) Human VISTA binding kinetics of P1-061029 (“ ‘029”), P1-068761 (“ ‘761”) and P1-068767 (“ ‘767”) (as IgG1.3 antibodies) were measured at pH values between pH 7.4 and pH 6.0, i.e., at pH 6.9 and pH 6.45 using a Biacore® T100 instrument (GE Healthcare). […] Antibodies were diluted to 25 nM in PBST pH 7.4, and were captured across active biosensor flow cells at 5 ul/min for 45 seconds. A concentration series of 100 - 0.78 nM monovalent hVISTA-ECD (SEQ ID NO: 325) was prepared pH 7.4, 6.9, 6.45 and 6.0 running buffers, and was injected over the captured antibodies at 40 ul/min to measure association and dissociation. Two 15 second injections of 10 mM glycine pH 1.5 were used to regenerate the Protein A capture surface between assay cycles. Rate constants ka (kₒₙ) and kd (koff) were derived from reference flow cell and 0 nM blank-subtracted sensorgrams, and were fit to a 1:1 binding model in Biacore® T200 Evaluation Software v.2.0. The affinity constant, KD was calculated as the ratio of rate constants koff/kₒₙ for each VISTA antibody. Ratios of koff and KD at each pH relative to pH 6.0 were calculated to evaluate how the VISTA koff and KD change as the buffer pH shifts to physiological, and are shown in Table 7. […] As the buffer pH shifts from acidic to physiological, VISTA koff and KD both weaken for ‘761 and ‘767. Physiological pH data for ‘761 and ‘767 for comparison is referenced from Table 7 and noted with an asterisk (*).

[3] = target: T1, monovalent hVISTA-ECD (amino acids …); assay: SPR 37C, Ab on Protein A, hVISTA-ECD 50-5 nM, pH 6.0, average
Outline: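 Biacore T100 at 37C: antibodies (IgG1.3 format, 25 nM in PBST pH 7.4) captured on Protein A, then 50 - 5 nM monovalent hVISTA-ECD injected in pH 7.4 or 6.0 running buffer. Reference- and blank-subtracted sensorgrams fit to 1:1 model; KD = koff/kon.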

[4] = target: T1, monovalent hVISTA-ECD (amino acids …); assay: SPR 37C, pH 6.45 over pH 6.0
Procedure: as §1

[5] = target: T1, monovalent hVISTA-ECD (amino acids …); assay: SPR 37C, Ab on Protein A, hVISTA-ECD 100-0.78 nM, pH 6.45
Procedure: as §1

[6] = target: T1, monovalent hVISTA-ECD (amino acids …); assay: SPR 37C, pH 6.9 over pH 6.0
Procedure: as §1

[7] = target: T2, avidin (ThermoFisher Scientific catalog #21128) (UniProt P02701 25-152); assay: SPR 25C, Ab on Protein A, pH 6 and pH 7.4
T2 construct: pI control protein
T2 sequence (P02701 25-152 limits assumed): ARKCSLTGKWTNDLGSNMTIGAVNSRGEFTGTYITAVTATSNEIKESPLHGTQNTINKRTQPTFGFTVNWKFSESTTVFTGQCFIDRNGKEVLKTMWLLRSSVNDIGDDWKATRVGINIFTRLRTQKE

[8] = target: T3, BSA (Calbiochem catalog #126593) (UniProt P02769 25-607); assay: SPR 25C, Ab on Protein A, pH 6 and pH 7.4
T3 construct: pI control protein
T3 sequence (P02769 25-607 limits assumed): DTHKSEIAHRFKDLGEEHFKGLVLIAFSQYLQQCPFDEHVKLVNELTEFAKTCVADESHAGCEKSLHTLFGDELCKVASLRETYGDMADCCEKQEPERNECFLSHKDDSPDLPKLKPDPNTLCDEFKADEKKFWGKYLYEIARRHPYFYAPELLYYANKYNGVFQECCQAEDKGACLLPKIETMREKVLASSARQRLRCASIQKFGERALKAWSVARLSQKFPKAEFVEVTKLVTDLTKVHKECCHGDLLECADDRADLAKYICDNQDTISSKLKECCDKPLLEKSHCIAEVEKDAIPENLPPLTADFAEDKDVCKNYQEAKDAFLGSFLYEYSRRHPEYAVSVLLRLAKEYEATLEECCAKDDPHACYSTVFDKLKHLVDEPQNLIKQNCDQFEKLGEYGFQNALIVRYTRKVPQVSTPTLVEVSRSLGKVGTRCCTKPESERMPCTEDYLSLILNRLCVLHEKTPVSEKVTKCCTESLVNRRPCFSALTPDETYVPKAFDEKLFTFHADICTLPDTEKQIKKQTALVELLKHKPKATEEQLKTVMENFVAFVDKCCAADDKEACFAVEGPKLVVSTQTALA

Kd [1]: 7.2 nM
koff [1]: 0.0079 s⁻¹
kon [1]: 1.1e+06 M⁻¹ s⁻¹
Kd [2]: 2 nM
koff [2]: 0.0057 s⁻¹
kon [2]: 2.9e+06 M⁻¹ s⁻¹
Kd [3]: 3.6 nM
koff [3]: 0.0058 s⁻¹
kon [3]: 1.6e+06 M⁻¹ s⁻¹
KD ratio to pH 6.0 [4]: 2.7
koff ratio to pH 6.0 [4]: 0.7
Kd [5]: 5.3 nM
koff [5]: 0.004 s⁻¹
kon [5]: 740000 M⁻¹ s⁻¹
KD ratio to pH 6.0 [6]: 7.1
koff ratio to pH 6.0 [6]: 1
B1: P1-061029.IgG1.3 (antibody)
heavy: EVQLVESGGGLVQPGKSLRLSCAASGFTLDDYAMHWVRQAPGKGLEWVSGINWNSANIGYADSVKGRFTISRDNAKNSLYLQMNSLRTEDTALYYCAKVPGYSGGWIDAFDVWGQGTMVTVSSASTKGPSVFPLAPSSKSTSGGTAALGCLVKDYFPEPVTVSWNSGALTSGVHTFPAVLQSSGLYSLSSVVTVPSSSLGTQTYICNVNHKPSNTKVDKRVEPKSCDKTHTCPPCPAPEAEGAPSVFLFPPKPKDTLMISRTPEVTCVVVDVSHEDPEVKFNWYVDGVEVHNAKTKPREEQYNSTYRVVSVLTVLHQDWLNGKEYKCKVSNKALPAPIEKTISKAKGQPREPQVYTLPPSREEMTKNQVSLTCLVKGFYPSDIAVEWESNGQPENNYKTTPPVLDSDGSFFLYSKLTVDKSRWQQGNVFSCSVMHEALHNHYTQKSLSLSPG
light: not shown
notes: IgG1.3; also called P1-061029 (parent); P1-061029-18
binding result [7]: no binding (tested: 10 RU; analyte 100-10 nM)
binding result [8]: no binding (tested: 10 RU; analyte 100-10 nM)

Kd [1]: 4.3 nM
koff [1]: 0.0016 s⁻¹
kon [1]: 370000 M⁻¹ s⁻¹
Kd [2]: 1.1 nM
koff [2]: 0.00066 s⁻¹
kon [2]: 600000 M⁻¹ s⁻¹
Kd [3]: 3.8 nM
koff [3]: 0.0014 s⁻¹
kon [3]: 380000 M⁻¹ s⁻¹
KD ratio to pH 6.0 [4]: 18.4
koff ratio to pH 6.0 [4]: 3.2
Kd [5]: 20 nM
koff [5]: 0.0021 s⁻¹
kon [5]: 110000 M⁻¹ s⁻¹
KD ratio to pH 6.0 [6]: 170
koff ratio to pH 6.0 [6]: 13.4
B2: P1-068761.IgG1.3 (antibody)
heavy: B1 heavy with D30E, Y32E, A56E, N57E, G104H, F110E
light: not shown
notes: IgG1.3; also called P1-068761-20; P1-068761 hIgG1.3f
binding result [7]: no binding (tested: 10 RU; analyte 100-10 nM)
binding result [8]: no binding (tested: 10 RU; analyte 100-10 nM)
